Test results: paper PMC8373988, “Structures of a deAMPylation complex rationalise the switch between antagonistic catalytic activities of FICD” (Nature Communications, 2021)

What was measured:
[1] = biological target: T1, lid-truncated BiP^T229A-V461F-AMP (residues 27–549) (Chinese hamster, UniProt G3I8R9 27-549, T229A | V461F, AMP covalently attached to Thr518 (Thr518-AMP)); assay: crystal structure; heterodimer copurified by gel filtration (FICD:BiP-AMP mixed 1.5:1 with 250 µM ATP, 50 mM KCl, 2 mM MgCl2; TNKMT buffer), sitting drop vapour diffusion at 25 °C; two crystal forms (state 1, state 2); conditions: both partners purified
T1 construct: Chinese hamster BiP residues 27–549 (all but helix A of SBDα removed); identical to human BiP over this range; also called AMPylated BiP; BiP-AMP; source: E. coli, purified (Ni-NTA, Ulp1 cleavage, anion exchange, gel filtration); AMPylated in vitro with GST-TEV-FICD^E234G; not shown: His6-Smt3, N-terminal, cleaved

[2] = biological target: T2, AMPylated biotinylated-AviTag-haBiP^T229A-V461F (residues 27–635) (Chinese hamster, UniProt G3I8R9 27-635, T229A | V461F, AMP covalently attached to Thr518 (Thr518-AMP); biotin on the N-terminal Avi-tag); assay: BLI; biotinylated BiP or BiP-AMP immobilised on streptavidin biosensors, activated in 2 mM ATP for 200 s; apo FICD analytes at 50 nM unless otherwise specified; HKM with 0.05% Triton X-100, 30 °C; second dissociation step with 2 mM ATP; conditions: both partners purified
T2 construct: Chinese hamster BiP residues 27–635; identical to human BiP over this range; A GS linker stands between the Avi-tag and BiP residue 27; also called AMPylated BiP; BiP-AMP; source: E. coli, purified; AMPylated in vitro with GST-TEV-FICD^E234G, biotinylated in vitro with GST-BirA, made nucleotide-free, MonoQ; not shown: His6-Smt3, N-terminal, cleaved; Avi-tag (biotinylated), N-terminal, kept

[3] = biological target: T3, biotinylated-AviTag-haBiP^T229A-V461F (residues 27–635), unmodified (Chinese hamster, UniProt G3I8R9 27-635, T229A | V461F, biotin on the N-terminal Avi-tag); assay: as above; conditions: both partners purified
T3 construct: Chinese hamster BiP residues 27–635; identical to human BiP over this range; A GS linker stands between the Avi-tag and BiP residue 27; also called unmodified BiP; BiP:ATP; source: E. coli, purified; biotinylated in vitro with GST-BirA, made nucleotide-free, MonoQ; not shown: His6-Smt3, N-terminal, cleaved; Avi-tag (biotinylated), N-terminal, kept

[4] = biological target: the molecule itself; assay: contrast variation small-angle neutron scattering (SANS); complexes of partially deuterated and non-deuterated FICD^H363A and BiP-AMP copurified by gel filtration (1.25:1 BiP-AMP:FICD, 250 µM ATP) in TNKMT(0.2) at various %D2O; 4.3–5.5 mg/ml, 12 °C
[5] = biological target: T4, BiP^T229A-V461F-AMP (residues 27–635), 'full-length' AMPylated BiP (Chinese hamster, UniProt G3I8R9 27-635, T229A | V461F, AMP covalently attached to Thr518 (Thr518-AMP)); assay: as above; conditions: both partners purified
T4 construct: Chinese hamster BiP residues 27–635 (lacks the unstructured acidic N-terminal region and the C-terminal region with KDEL); identical to human BiP over this range; The deAMPylation assays used BiP^T229A-V461F (UK2521) AMPylated in vitro; also called full-length BiP-AMP; hBiP-AMP; source: E. coli, purified (Ni-NTA, Ulp1 cleavage, anion exchange, gel filtration); AMPylated in vitro with …

[6] = biological target: T3, biotinylated-AviTag-haBiP^T229A-V461F …; assay: BLI; biotinylated BiP immobilised on streptavidin biosensor, activated with 2 mM ATP (BiP:ATP); TPR domain 62.5 nM to 16 µM, 50 s association and 50 s dissociation; HKMTx, 30 °C; one-phase global fit and steady-state one site fit; conditions: both partners purified
[7] = biological target: T3, biotinylated-AviTag-haBiP^T229A-V461F …; assay: BLI; biotinylated nucleotide-free BiP (BiP:Apo) immobilised on streptavidin biosensor, before ATP activation; 16 µM TPR domain for 50 s; HKMTx, 30 °C; conditions: both partners purified

T2 sequence (G3I8R9 27-635 T229A/V461F): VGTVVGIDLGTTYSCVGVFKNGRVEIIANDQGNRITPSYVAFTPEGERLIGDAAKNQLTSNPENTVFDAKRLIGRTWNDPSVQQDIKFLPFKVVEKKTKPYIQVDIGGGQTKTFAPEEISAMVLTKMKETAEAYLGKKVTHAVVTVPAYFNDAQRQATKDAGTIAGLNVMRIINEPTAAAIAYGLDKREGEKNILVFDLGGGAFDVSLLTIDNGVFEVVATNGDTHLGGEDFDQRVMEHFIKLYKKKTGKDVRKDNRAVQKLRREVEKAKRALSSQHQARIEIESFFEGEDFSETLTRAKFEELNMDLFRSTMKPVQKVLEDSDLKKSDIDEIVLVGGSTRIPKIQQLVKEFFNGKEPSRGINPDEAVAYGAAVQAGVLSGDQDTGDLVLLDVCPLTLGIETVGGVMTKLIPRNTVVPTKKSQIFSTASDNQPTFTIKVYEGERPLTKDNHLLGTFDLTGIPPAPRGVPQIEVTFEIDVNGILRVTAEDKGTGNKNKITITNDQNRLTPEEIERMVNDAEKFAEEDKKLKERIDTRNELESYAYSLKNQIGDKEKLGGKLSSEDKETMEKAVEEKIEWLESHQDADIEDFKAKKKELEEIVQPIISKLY
T3 sequence (G3I8R9 27-635 T229A/V461F): as above
T4 sequence (G3I8R9 27-635 T229A/V461F): as above
T1 sequence (G3I8R9 27-549 T229A/V461F): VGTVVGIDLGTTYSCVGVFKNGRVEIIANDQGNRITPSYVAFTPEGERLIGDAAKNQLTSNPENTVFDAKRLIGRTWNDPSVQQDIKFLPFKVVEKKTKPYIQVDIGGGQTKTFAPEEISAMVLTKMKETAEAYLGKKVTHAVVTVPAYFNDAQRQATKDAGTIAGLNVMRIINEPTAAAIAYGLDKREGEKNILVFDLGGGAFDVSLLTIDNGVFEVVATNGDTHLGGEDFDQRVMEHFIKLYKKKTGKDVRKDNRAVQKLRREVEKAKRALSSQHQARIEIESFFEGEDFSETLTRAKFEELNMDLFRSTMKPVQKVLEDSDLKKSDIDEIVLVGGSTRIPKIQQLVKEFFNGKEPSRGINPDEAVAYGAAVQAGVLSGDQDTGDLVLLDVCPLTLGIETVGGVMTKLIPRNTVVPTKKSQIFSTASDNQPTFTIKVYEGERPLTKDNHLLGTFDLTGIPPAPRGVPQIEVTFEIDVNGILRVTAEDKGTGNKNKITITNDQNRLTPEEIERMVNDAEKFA

Row | Binder | binding result [2] | binding result [3] | other results
1 | FICD^L258D-H363A (residues 104–445), monomeric, catalytically inactive (enzyme, human, UniProt Q9BVA6 104-445, looked up, human FICD, predicted structured regions, residues 104–445; L258D makes FICD monomeric; H363A traps the deAMPylation substrate; also called monomeric FICD^L258D-H363A; UK2093; source: E. coli, purified (Ni-NTA, on-bead Ulp1 cleavage, anion exchange, gel filtration); not shown: His6-Smt3, N-terminal, cleaved) LEARAALNQALEMKRQGKREKAQKLFMHALKMDPDFVDALTEFGIFSEEDKDIIQADYLYTRALTISPYHEKALVNRDRTLPLVEEIDQRYFSIIDSKVKKVMSIPKGNSALRRVMEETYYHHIYHTVAIEGNTLTLSEIRHILETRYAVPGKSDEEQNEVIGMHAAMKYINTTLVSRIGSVTISDVLEIHRRVLGYVDPVEAGRFRTTQVLVGHHIPPHPQDVEKQMQEFVQWLNSEEAMNLHPVEFAALAHYKLVYIAPFIDGNGRTSRLLMNLILMQAGYPPITIRKEQRSDYYHVLEAANEGDVRPFIRFIAKCTETTLDTLLFATTEYSVALPEAQP | binds | binds | binding result [1]: binds
2 | dimeric FICD^H363A(TPRox): FICD^D160C-T183C-H363A-C421S, oxidised (enzyme, human, UniProt Q9BVA6 104-445, looked up, intramolecular disulfide bond between Cys160 and Cys183, human FICD residues 104–445; also called TPRox (dimeric); source: E. coli, purified; oxidised with CuSO4 and 1,10-phenanthroline, Capto Q, RESOURCE Q, gel filtration; not shown: His6-Smt3, N-terminal, cleaved) LEARAALNQALEMKRQGKREKAQKLFMHALKMDPDFVDALTEFGIFSEEDKDIIQACYLYTRALTISPYHEKALVNRDRCLPLVEEIDQRYFSIIDSKVKKVMSIPKGNSALRRVMEETYYHHIYHTVAIEGNTLTLSEIRHILETRYAVPGKSLEEQNEVIGMHAAMKYINTTLVSRIGSVTISDVLEIHRRVLGYVDPVEAGRFRTTQVLVGHHIPPHPQDVEKQMQEFVQWLNSEEAMNLHPVEFAALAHYKLVYIAPFIDGNGRTSRLLMNLILMQAGYPPITIRKEQRSDYYHVLEAANEGDVRPFIRFIAKSTETTLDTLLFATTEYSVALPEAQP | binds |  | 
3 | dimeric FICD^H363A(TPRred): FICD^D160C-T183C-H363A-C421S, cysteines reduced (enzyme, human, UniProt Q9BVA6 104-445, looked up, human FICD residues 104–445; The cysteine-reduced form of m11; also called TPRred (dimeric); source: E. coli, purified; not shown: His6-Smt3, N-terminal, cleaved) LEARAALNQALEMKRQGKREKAQKLFMHALKMDPDFVDALTEFGIFSEEDKDIIQACYLYTRALTISPYHEKALVNRDRCLPLVEEIDQRYFSIIDSKVKKVMSIPKGNSALRRVMEETYYHHIYHTVAIEGNTLTLSEIRHILETRYAVPGKSLEEQNEVIGMHAAMKYINTTLVSRIGSVTISDVLEIHRRVLGYVDPVEAGRFRTTQVLVGHHIPPHPQDVEKQMQEFVQWLNSEEAMNLHPVEFAALAHYKLVYIAPFIDGNGRTSRLLMNLILMQAGYPPITIRKEQRSDYYHVLEAANEGDVRPFIRFIAKSTETTLDTLLFATTEYSVALPEAQP | binds |  | 
4 | FICD^H363A (residues 104–445), dimeric, catalytically inactive (enzyme, human, UniProt Q9BVA6 104-445, looked up, human FICD, predicted structured regions, residues 104–445; also called dimeric FICD; dimeric FICD^H363A; source: E. coli, purified (Ni-NTA, on-bead Ulp1 cleavage, anion exchange, gel filtration); matchout-deuterated form from E. coli BL21 Star (DE3), purified; not shown: His6-Smt3, N-terminal, cleaved) LEARAALNQALEMKRQGKREKAQKLFMHALKMDPDFVDALTEFGIFSEEDKDIIQADYLYTRALTISPYHEKALVNRDRTLPLVEEIDQRYFSIIDSKVKKVMSIPKGNSALRRVMEETYYHHIYHTVAIEGNTLTLSEIRHILETRYAVPGKSLEEQNEVIGMHAAMKYINTTLVSRIGSVTISDVLEIHRRVLGYVDPVEAGRFRTTQVLVGHHIPPHPQDVEKQMQEFVQWLNSEEAMNLHPVEFAALAHYKLVYIAPFIDGNGRTSRLLMNLILMQAGYPPITIRKEQRSDYYHVLEAANEGDVRPFIRFIAKCTETTLDTLLFATTEYSVALPEAQP | binds | binds | binding result [4]: binds; binding result [5]: binds
5 | monomeric FICD^L258D-H363A(TPRox): FICD^D160C-T183C-L258D-H363A-C421S, oxidised (enzyme, human, UniProt Q9BVA6 104-445, looked up, intramolecular disulfide bond between Cys160 and Cys183, human FICD residues 104–445; PDB entries hold the parent m1; also called TPRox (monomeric); source: E. coli, purified; oxidised with CuSO4 and 1,10-phenanthroline, Capto Q, RESOURCE Q, gel filtration; not shown: His6-Smt3, N-terminal, cleaved) LEARAALNQALEMKRQGKREKAQKLFMHALKMDPDFVDALTEFGIFSEEDKDIIQACYLYTRALTISPYHEKALVNRDRCLPLVEEIDQRYFSIIDSKVKKVMSIPKGNSALRRVMEETYYHHIYHTVAIEGNTLTLSEIRHILETRYAVPGKSDEEQNEVIGMHAAMKYINTTLVSRIGSVTISDVLEIHRRVLGYVDPVEAGRFRTTQVLVGHHIPPHPQDVEKQMQEFVQWLNSEEAMNLHPVEFAALAHYKLVYIAPFIDGNGRTSRLLMNLILMQAGYPPITIRKEQRSDYYHVLEAANEGDVRPFIRFIAKSTETTLDTLLFATTEYSVALPEAQP | binds | binds | 
6 | isolated TPR domain of FICD (domain or fragment) LEARAALNQALEMKRQGKREKAQKLFMHALKMDPDFVDALTEFGIFSEEDKDIIQADYLYTRALTISPYH |  |  | Kd [6]: 1100 nM; Kd [7]: > 160000 nM
